The chains are these.
T1: GST-GDI1(3D), phosphomimetic form GDI1 S45D S48D T52D (Arabidopsis, UniProt Q9SFC6 1-240, S45D | S48D | T52D)
T1 sequence: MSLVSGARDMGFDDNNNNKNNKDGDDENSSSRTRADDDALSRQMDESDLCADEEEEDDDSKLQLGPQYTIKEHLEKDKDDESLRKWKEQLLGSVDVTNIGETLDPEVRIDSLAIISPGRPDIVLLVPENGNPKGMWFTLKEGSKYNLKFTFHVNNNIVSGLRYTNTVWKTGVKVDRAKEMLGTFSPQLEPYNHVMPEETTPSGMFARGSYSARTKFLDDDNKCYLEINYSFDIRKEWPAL

B1: His-ROP2 (natural protein)
chain: not shown
B2: His-ROP10 (natural protein)
chain: not shown
B3: His-ROP6 (natural protein)
chain: not shown

In the assay the target is T1, GST-GDI1(3D), phosphomimetic form GDI1 …. Put plainly: pull-down.
Consider B1, for which the binding result is “binds”. Turning to B2, the binding result is on record as “binds”.

In the case of B3, the binding result is listed as “binds”.

(Values after article PMC3733153 (Journal of Experimental Botany, 2013).)
